Test results: patent US20070178448A1 (Scripps Research, published 2007)
Non-standard residues stand in square brackets, D forms with d. No end group written: not given here. Phe(4-Ac) = CC(=O)c1ccc(C[C@H](N)C(=O)O)cc1

Molecular target: T1, streptavidin (UniProt P22629 37-163, limits assumed)
T1 construct: also called streptavidin coated microtiter plates (Pierce); strepavidin
Test: phage capture on streptavidin coated wells, elution with 10 µM biotin, titer of input and output phage
Experimental: In a model phage selection experiment, wild-type phage and phage carrying the mutant SBP with p-azido-L-phenylalanine were exposed to streptavidin coated wells, followed by recovery of the bound phage. Titer of the recovered enriched phage following elution was used as a measure of the binding specificity of the page for the streptavidin.
Specifically, two wells from a streptavidin coated microtiter plate (Pierce) were blocked with 300 μL of 4% BSA in 1×PBS at 4° C. overnight. After washing, separate streptavidin coated wells were incubated with similar numbers of phage (each in 100 μL) of either M13KE-SBP prepared in TTS/RS 3 or M13KE wild type phage at room temperature for 2 hours and washed 10 times with 200 μL PBST. The bound phage was eluted from the plate solid support with 10 μM biotin 1×PBS, pH 7.4. The input and output phage were titered (see, FIG. 9).

T1 sequence (P22629 37-163 limits assumed): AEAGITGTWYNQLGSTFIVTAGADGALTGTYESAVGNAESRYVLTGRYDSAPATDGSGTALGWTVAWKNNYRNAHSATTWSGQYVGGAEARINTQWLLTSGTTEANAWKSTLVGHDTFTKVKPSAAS

B1: M13KE-SBP phage prepared in TTS/RS 3 in the presence of p-acetylphenylalanine 3 (streptavidin binding peptide AGXTLLAHPQ, X = p-acetyl-L-phenylalanine, as … (peptide)
chain: AG[Phe(4-Ac)]TLLAHPQ
modifications: not fully specified (C-terminus)
notes: also called M13KE-SBP phage prepared in TTS/p-acetylphenylalanine 3; M13KE-SBP prepared in TTS/RS 3; not shown: pIII minor coat protein of M13 filamentous phage (vector M13KE); peptide fused at its N-terminus after the signal peptid
recovery rate, fold over that of M13KE wild-type phage: 9000 fold
